This note sets out measurements from paper PMC5002451.

In series [1] the target is T1, RIG-I (human, UniProt O95786 1-925).
T1 sequence: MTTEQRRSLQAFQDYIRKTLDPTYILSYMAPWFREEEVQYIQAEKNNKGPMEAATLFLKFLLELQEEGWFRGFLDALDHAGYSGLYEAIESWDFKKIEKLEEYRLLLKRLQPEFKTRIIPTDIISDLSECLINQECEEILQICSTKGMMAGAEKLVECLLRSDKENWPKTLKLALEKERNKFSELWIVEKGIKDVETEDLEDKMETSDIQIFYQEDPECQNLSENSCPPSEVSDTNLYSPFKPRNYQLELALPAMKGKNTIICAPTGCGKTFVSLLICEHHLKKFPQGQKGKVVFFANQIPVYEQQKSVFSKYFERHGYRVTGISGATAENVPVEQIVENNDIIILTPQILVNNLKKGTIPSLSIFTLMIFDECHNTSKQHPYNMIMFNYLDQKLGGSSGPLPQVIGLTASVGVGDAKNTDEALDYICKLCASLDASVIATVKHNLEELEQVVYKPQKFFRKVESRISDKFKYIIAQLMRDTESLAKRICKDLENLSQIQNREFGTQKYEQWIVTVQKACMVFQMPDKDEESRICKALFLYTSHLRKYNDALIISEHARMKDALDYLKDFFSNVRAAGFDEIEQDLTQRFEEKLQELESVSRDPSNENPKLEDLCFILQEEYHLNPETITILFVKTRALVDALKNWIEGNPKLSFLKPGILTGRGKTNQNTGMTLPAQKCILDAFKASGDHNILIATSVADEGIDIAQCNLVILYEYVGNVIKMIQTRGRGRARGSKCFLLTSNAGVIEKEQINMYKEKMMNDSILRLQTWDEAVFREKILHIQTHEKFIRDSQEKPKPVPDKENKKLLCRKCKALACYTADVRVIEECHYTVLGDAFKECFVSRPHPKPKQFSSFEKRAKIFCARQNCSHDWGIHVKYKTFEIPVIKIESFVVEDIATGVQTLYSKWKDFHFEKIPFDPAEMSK
Put plainly: EMSA. A general note: A gel shift assay detects complexes by their altered migration in electrophoresis.

The target in series [2] is T1, RIG-I. Description: EMSA. The source holds these as a separate data set.

Like-named read-outs stand apart in the source and are kept apart here.

B1: 47R/25RI (dsRNA)
RNA 1: GGAAAAUGUAAAUGACAUAGGCGCGCUGAAAGGGAGAAGUGAAAGUG
RNA 2: CGCGCCUAUGUCAUUUACAUUUUCC
modifications: 5'-OH
Turning to B1, the binding result in series [1] is reported as “binds”.

B2: 3P-47R/25DI (DNA:RNA)
RNA: GGAAAAUGUAAAUGACAUAGGCGCGCUGAAAGGGAGAAGUGAAAGUG
DNA: CACTTTCACTTCTCCCTTTCAGCGC
modifications: 5'-triphosphate (on 47R, implied by name)
As for B2, in series [2], the binding result is reported as “binds”.

B3: 3P-47R/25RI (dsRNA)
RNA 1: GGAAAAUGUAAAUGACAUAGGCGCGCUGAAAGGGAGAAGUGAAAGUG
RNA 2: CGCGCCUAUGUCAUUUACAUUUUCC
modifications: 5'-triphosphate (on 47R, implied by name)
Consider B3, for which the binding result in series [2] is “binds”.
